# According to IntAct's records for PubMed 11713520:
# B1: Auxin-responsive protein IAA17 (Arabidopsis thaliana (Mouse-ear cress)), P93830 (parent)
# chain: MMGSVELNLRETELCLGLPGGDTVAPVTGNKRGFSETVDLKLNLNNEPANKEGSTTHDVVTFDSKEKSACPKDPAKPPAKAQVVGWPPVRSYRKNVMVSCQKSSGGPEAAAFVKVSMDGAPYLRKIDLRMYKSYDELSNALSNMFSSFTMGKHGGEEGMIDFMNERKLMDLVNSWDYVPSYEDKDGDWMLVGDVPWPMFVDTCKRLRLMKGSDAIGLAPRAMEKCKSRA
# partner: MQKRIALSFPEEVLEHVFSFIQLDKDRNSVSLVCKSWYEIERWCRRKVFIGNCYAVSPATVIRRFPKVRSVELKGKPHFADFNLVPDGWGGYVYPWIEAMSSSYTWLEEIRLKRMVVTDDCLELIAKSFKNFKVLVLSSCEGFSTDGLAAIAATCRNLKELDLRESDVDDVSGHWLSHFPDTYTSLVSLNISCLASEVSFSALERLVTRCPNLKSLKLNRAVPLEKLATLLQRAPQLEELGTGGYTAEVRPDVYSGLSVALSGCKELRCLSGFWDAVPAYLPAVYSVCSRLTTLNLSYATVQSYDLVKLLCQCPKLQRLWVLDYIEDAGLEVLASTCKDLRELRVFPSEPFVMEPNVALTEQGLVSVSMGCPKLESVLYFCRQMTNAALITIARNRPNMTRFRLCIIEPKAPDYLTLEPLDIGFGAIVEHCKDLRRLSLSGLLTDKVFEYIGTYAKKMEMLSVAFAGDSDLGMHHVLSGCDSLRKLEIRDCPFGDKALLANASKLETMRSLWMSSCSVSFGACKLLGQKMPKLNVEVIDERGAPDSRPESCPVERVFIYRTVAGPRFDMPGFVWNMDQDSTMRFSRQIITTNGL
# Variants of: B1
# Details: with tir1_arath TIR1, Q570C0
row,effect of a mutation on the interaction,Variant
1,decreasing interaction,MMGSVELNLRETELCLGLPGGDTVAPVTGNKRGFSETVDLKLNLNNEPANKEGSTTHDVVTFDSKEKSACPKDPAKPPAKAQVVGWPLVRSYRKNVMVSCQKSSGGPEAAAFVKVSMDGAPYLRKIDLRMYKSYDELSNALSNMFSSFTMGKHGGEEGMIDFMNERKLMDLVNSWDYVPSYEDKDGDWMLVGDVPWPMFVDTCKRLRLMKGSDAIGLAPRAMEKCKSRA [P88L]
